From patent publication US6348586

Molecular target: human CCR5 transiently expressed on CCC/CD4 cells (human) (UniProt P51681)
Experiment: cell-based or functional assay
Details: scale: fraction of the reverse-construct negative control

Chain of UniProt P51681 (P51681 whole entry): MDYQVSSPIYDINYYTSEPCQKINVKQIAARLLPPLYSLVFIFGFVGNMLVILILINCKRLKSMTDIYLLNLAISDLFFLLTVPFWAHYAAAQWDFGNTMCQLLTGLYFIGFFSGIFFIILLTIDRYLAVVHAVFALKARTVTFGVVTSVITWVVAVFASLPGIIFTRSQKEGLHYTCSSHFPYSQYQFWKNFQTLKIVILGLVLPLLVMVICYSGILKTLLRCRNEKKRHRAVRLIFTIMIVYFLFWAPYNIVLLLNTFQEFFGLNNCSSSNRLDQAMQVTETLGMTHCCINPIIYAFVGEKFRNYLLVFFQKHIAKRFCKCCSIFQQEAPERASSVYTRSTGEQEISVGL

**Q.** How did the NSI HIV-1 foci generation (immunostaining for retroviral antigen) in CCC/CD4 cells cotransfected with CCR5 and vMIP-I turn out when “KSHV viral macrophage inflammatory protein I (vMIP-I) encoded by ORF K6 (ligand)” was run?
**A.** Its NSI HIV-1 foci generation (immunostaining for retroviral antigen) in CCC/CD4 cells cotransfected with CCR5 and vMIP-I is < 0.5.
